Experiments:
T308tide = target: T1, T308tide
T1 chain: KTFCGTPEYLAPEVRR

[1] = target: GST-SGK1[T422D] (lacking the N-terminal 60 amino acids), O00141
[2] = target: p70 S6K-T2 (His-tagged, insect cells), P23443
SGK1[F421A], O00141 = target: T2, SGK1[F421A], O00141
T2 chain: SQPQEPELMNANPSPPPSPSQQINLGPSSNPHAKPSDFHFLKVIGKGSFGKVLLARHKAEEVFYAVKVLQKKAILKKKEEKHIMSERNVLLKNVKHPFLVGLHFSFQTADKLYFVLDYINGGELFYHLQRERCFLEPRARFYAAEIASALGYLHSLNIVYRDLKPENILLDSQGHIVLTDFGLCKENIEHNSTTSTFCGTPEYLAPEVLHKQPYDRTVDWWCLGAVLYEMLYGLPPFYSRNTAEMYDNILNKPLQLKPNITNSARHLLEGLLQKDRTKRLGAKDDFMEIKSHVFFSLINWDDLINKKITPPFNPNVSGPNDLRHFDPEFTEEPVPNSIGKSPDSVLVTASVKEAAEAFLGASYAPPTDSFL

[3] = target: GST-S6K1-T2[F411A], P23443
[4] = target: T3, GST-?PH-PKBα[S473D], P31749
T3 chain: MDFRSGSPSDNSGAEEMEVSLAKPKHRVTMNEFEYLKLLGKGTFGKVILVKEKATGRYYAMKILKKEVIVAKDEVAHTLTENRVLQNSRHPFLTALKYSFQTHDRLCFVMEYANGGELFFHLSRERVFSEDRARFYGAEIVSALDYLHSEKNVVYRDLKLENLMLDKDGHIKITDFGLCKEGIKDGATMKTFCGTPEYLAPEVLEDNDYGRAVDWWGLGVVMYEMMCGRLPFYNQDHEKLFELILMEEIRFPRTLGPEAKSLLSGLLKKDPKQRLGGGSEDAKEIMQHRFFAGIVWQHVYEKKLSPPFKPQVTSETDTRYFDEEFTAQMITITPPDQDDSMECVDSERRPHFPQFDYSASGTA

GST-?PH-PKBα, P31749 = target: T4, GST-?PH-PKBα, P31749
T4 chain: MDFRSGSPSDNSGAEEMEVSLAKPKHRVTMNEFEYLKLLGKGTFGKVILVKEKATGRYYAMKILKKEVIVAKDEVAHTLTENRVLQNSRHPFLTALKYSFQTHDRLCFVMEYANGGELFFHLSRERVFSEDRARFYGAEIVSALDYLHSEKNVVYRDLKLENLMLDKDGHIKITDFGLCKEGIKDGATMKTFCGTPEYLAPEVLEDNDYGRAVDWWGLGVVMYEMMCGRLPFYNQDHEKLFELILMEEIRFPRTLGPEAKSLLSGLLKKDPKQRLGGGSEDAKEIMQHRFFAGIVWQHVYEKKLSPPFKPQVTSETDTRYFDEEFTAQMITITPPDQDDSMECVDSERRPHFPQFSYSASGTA

PIFtide = target: T5, PIFtide
T5 chain: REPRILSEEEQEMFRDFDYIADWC

D978A-PIFtide = target: T6, D978A-PIFtide
T6 chain: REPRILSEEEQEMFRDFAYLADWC

[5] = target: T7, GST-?PH-PKBα[F472A], P31749
T7 chain: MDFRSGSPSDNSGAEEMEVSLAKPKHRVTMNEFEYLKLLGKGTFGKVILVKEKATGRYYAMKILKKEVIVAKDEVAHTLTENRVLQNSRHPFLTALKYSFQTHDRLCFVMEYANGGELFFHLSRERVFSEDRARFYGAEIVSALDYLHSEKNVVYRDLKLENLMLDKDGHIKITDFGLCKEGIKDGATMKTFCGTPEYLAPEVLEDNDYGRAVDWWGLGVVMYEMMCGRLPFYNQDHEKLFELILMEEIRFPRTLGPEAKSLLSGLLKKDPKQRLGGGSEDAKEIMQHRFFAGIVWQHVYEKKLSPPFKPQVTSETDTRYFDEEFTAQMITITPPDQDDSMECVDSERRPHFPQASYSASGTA

[6] = target: 412E-p70 S6K-T2 (His-tagged, insect cells), P23443
[7] = target: T8, GST-SGK1 (lacking the N-terminal 60 amino acids), O00141
T8 chain: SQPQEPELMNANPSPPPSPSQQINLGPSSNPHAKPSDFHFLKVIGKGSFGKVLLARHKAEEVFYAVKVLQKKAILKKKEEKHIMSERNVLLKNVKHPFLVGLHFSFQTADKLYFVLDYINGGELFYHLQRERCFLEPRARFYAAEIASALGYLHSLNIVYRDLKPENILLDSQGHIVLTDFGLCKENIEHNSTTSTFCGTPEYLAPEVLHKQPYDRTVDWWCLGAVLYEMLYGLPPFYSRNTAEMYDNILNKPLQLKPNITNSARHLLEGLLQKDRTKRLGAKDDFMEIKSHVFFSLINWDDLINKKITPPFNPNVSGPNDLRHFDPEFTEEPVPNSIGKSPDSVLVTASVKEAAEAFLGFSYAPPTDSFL

p70 S6K-T2 (His-tagged, insect cells), P23443, sequence (P23443 whole entry, looked up): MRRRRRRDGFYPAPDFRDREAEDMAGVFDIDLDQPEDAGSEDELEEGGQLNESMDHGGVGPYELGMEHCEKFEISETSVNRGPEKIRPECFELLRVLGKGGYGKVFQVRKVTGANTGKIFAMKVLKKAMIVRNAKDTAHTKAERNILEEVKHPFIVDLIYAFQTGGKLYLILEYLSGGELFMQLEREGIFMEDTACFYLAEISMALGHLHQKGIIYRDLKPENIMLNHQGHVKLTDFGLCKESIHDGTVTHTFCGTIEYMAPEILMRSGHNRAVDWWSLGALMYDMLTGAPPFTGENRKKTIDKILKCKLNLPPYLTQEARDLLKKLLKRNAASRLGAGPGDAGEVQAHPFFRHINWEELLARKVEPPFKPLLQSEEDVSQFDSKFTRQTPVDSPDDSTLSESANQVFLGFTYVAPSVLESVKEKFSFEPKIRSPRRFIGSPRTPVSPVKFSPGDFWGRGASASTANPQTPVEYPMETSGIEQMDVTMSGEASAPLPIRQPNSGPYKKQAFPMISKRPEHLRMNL
412E-p70 S6K-T2 (His-tagged, insect cells), P23443, sequence (P23443 whole entry, looked up): as above
GST-FL-PKB 473D, P31749, sequence (P31749 other isoform, or with tags, fused parts or gaps): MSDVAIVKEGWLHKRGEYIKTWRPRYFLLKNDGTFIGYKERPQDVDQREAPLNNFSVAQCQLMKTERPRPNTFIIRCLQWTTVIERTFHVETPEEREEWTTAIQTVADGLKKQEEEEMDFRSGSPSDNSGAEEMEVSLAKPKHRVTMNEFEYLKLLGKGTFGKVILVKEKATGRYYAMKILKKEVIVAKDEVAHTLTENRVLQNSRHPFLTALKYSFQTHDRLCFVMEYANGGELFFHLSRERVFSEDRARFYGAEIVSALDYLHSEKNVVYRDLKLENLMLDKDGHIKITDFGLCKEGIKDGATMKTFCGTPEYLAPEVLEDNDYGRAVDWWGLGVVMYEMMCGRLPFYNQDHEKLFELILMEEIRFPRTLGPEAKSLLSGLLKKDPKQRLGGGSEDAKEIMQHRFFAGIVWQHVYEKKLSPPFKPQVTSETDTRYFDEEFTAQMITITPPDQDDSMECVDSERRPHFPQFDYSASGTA
GST-S6K1-T2[F411A], P23443, sequence (P23443 1-421 F411A): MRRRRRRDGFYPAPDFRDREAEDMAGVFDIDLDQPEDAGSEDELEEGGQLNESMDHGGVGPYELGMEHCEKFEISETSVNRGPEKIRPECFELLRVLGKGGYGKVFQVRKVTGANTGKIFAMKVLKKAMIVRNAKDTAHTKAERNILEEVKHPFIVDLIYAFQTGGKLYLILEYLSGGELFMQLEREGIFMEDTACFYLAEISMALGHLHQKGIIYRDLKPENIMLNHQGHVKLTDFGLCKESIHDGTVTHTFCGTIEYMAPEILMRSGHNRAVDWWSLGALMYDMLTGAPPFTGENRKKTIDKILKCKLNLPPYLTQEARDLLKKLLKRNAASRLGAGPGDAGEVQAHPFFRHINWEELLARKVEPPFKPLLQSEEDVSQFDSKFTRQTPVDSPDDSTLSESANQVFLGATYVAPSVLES
GST-PKBα[F472A], P31749, sequence (P31749 whole entry F472A): as the sequence (P31749 other isoform, or with tags, fused parts or gaps) above, with F472A, D473S counted along it
PDKtide, sequence (chain, as listed by the source): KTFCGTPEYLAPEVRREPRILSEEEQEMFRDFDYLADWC

B1: His-PDK1 (protein)
chain: DGTAAEPRPGAGSLQHAQPPPQPRKKRPEDFKFGKILGEGSFSTVVLARELATSREYAIKILEKRHIIKENKVPYVTRERDVMSRLDHPFFVKLYFTFQDDEKLYFGLSYAKNGELLKYIRKIGSFDETCTRFYTAEIVSALEYLHGKGIIHRDLKPENILLNEDMHIQITDFGTAKVLSPESKQARANSFVGTAQYVSPELLTEKSACKSSDLWALGCIIYQLVAGLPPFRAGNEYLIFQKIIKLEYDFPEKFFPKARDLVEKLLVLDATKRLGCEEMEGYGPLKAHPFFESVTWENLHQQTPPKLTAYLPAMSEDDEDCYGNYDNLLSQFGCMQVSSSSSSHSLSASDTGLPQRSGSNIEQYIHDLDSNSFELDLQFSEDEKRLLLEKQAGGNPWHQFVENNLILKMGPVDKRKGLFARRRQLLLTEGPHLYYVDPVNKVLKGEIPWSQELRPEAKNFKTFFVHTPNRTYYLMDPSGNAHKWCRKIQEVWRQRYQSHPDAAVQ
Km of PDK1 for the peptide substrate (T308tide): the Km was very high (>10 mM)
rate of phosphorylation at 100 µM, against T308tide (PDKtide): phosphorylated at a rate over 100-fold greater than that using T308tide

B2: GST-PDK1 (wild type) (protein)
chain: MARTTSQLYDAVPIQSSVVLCSCPSPSMVRTQTESSTPPGIPGGSRQGPAMDGTAAEPRPGAGSLQHAQPPPQPRKKRPEDFKFGKILGEGSFSTVVLARELATSREYAIKILEKRHIIKENKVPYVTRERDVMSRLDHPFFVKLYFTFQDDEKLYFGLSYAKNGELLKYIRKIGSFDETCTRFYTAEIVSALEYLHGKGIIHRDLKPENILLNEDMHIQITDFGTAKVLSPESKQARANSFVGTAQYVSPELLTEKSACKSSDLWALGCIIYQLVAGLPPFRAGNEYLIFQKIIKLEYDFPEKFFPKARDLVEKLLVLDATKRLGCEEMEGYGPLKAHPFFESVTWENLHQQTPPKLTAYLPAMSEDDEDCYGNYDNLLSQFGCMQVSSSSSSHSLSASDTGLPQRSGSNIEQYIHDLDSNSFELDLQFSEDEKRLLLEKQAGGNPWHQFVENNLILKMGPVDKRKGLFARRRQLLLTEGPHLYYVDPVNKVLKGEIPWSQELRPEAKNFKTFFVHTPNRTYYLMDPSGNAHKWCRKIQEVWRQRYQSHPDAAVQ
relative phosphorylation of the substrate by PDK1-wt, +PIFtide (relative, PKB[S473D]=100) [1]: 9.6
relative phosphorylation of the substrate by PDK1-wt, no PIFtide (relative, PKB[S473D]=100) [1]: 71
relative phosphorylation of the substrate by PDK1-wt, +PIFtide (relative, PKB[S473D]=100) [2]: 0.58
relative phosphorylation of the substrate by PDK1-wt, no PIFtide (relative, PKB[S473D]=100) [2]: 10.4
rate of phosphorylation by PDK1 compared to the wild type enzyme (SGK1[F421A], O00141): markedly reduced
rate of phosphorylation by PDK1 compared to the wild type enzyme [3]: markedly reduced
relative phosphorylation of the substrate by PDK1-wt, +PIFtide (relative, PKB[S473D]=100) [4]: 0.2
relative phosphorylation of the substrate by PDK1-wt, no PIFtide (relative, PKB[S473D]=100) [4]: 0.9
relative phosphorylation of the substrate by PDK1-wt, +PIFtide (relative, PKB[S473D]=100) (GST-FL-PKB 473D, P31749): 85.4
relative phosphorylation of the substrate by PDK1-wt, no PIFtide (relative, PKB[S473D]=100) (GST-FL-PKB 473D, P31749): 100
relative phosphorylation of the substrate by PDK1-wt, +PIFtide (relative, PKB[S473D]=100) (GST-?PH-PKBα, P31749): 0.25
relative phosphorylation of the substrate by PDK1-wt, no PIFtide (relative, PKB[S473D]=100) (GST-?PH-PKBα, P31749): 0.4
concentration needed to obtain 50% activation of PDK1 (T308tide as substrate) (PIFtide): 0.14 µM for wt-PIFtide
phosphorylation of p70 S6K at Thr412 by PDK1 (T412-P immunoblot) (PIFtide): The 24 residue PIF peptide prevented PDK1 from phosphorylating the p70 S6K at Thr412
relative phosphorylation of the substrate by PDK1-wt, +PIFtide (relative, PKB[S473D]=100) (GST-FL-PKB, P31749): 19.3
relative phosphorylation of the substrate by PDK1-wt, no PIFtide (relative, PKB[S473D]=100) (GST-FL-PKB, P31749): 28
concentration needed to obtain 50% activation of PDK1 (T308tide as substrate) (D978A-PIFtide): 1.1 µM for D978A-PIFtide
rate of phosphorylation by PDK1 compared to the wild type enzyme (GST-PKBα[F472A], P31749): PKB[F472A] was phosphorylated at a similar rate to the wild type PKB
rate of phosphorylation by PDK1 compared to the wild type enzyme [5]: markedly reduced
relative phosphorylation of the substrate by PDK1-wt, +PIFtide (relative, PKB[S473D]=100) [6]: 7.4
relative phosphorylation of the substrate by PDK1-wt, no PIFtide (relative, PKB[S473D]=100) [6]: 54
relative phosphorylation of the substrate by PDK1-wt, +PIFtide (relative, PKB[S473D]=100) [7]: 3.8
relative phosphorylation of the substrate by PDK1-wt, no PIFtide (relative, PKB[S473D]=100) [7]: 8

B3: GST-PDK1 L155E (protein)
chain: MARTTSQLYDAVPIQSSVVLCSCPSPSMVRTQTESSTPPGIPGGSRQGPAMDGTAAEPRPGAGSLQHAQPPPQPRKKRPEDFKFGKILGEGSFSTVVLARELATSREYAIKILEKRHIIKENKVPYVTRERDVMSRLDHPFFVKLYFTFQDDEKEYFGLSYAKNGELLKYIRKIGSFDETCTRFYTAEIVSALEYLHGKGIIHRDLKPENILLNEDMHIQITDFGTAKVLSPESKQARANSFVGTAQYVSPELLTEKSACKSSDLWALGCIIYQLVAGLPPFRAGNEYLIFQKIIKLEYDFPEKFFPKARDLVEKLLVLDATKRLGCEEMEGYGPLKAHPFFESVTWENLHQQTPPKLTAYLPAMSEDDEDCYGNYDNLLSQFGCMQVSSSSSSHSLSASDTGLPQRSGSNIEQYIHDLDSNSFELDLQFSEDEKRLLLEKQAGGNPWHQFVENNLILKMGPVDKRKGLFARRRQLLLTEGPHLYYVDPVNKVLKGEIPWSQELRPEAKNFKTFFVHTPNRTYYLMDPSGNAHKWCRKIQEVWRQRYQSHPDAAVQ
relative phosphorylation of the substrate by PDK1-L155E, +PIFtide (relative, PKB[S473D]=100) [1]: 3.4
relative phosphorylation of the substrate by PDK1-L155E, no PIFtide (relative, PKB[S473D]=100) [1]: 3.5
relative phosphorylation of the substrate by PDK1-L155E, +PIFtide (relative, PKB[S473D]=100) [2]: 0.27
relative phosphorylation of the substrate by PDK1-L155E, no PIFtide (relative, PKB[S473D]=100) [2]: 0.6
relative phosphorylation of the substrate by PDK1-L155E, +PIFtide (relative, PKB[S473D]=100) [4]: 0.15
relative phosphorylation of the substrate by PDK1-L155E, no PIFtide (relative, PKB[S473D]=100) [4]: 0.18
relative phosphorylation of the substrate by PDK1-L155E, +PIFtide (relative, PKB[S473D]=100) (GST-FL-PKB 473D, P31749): 162
relative phosphorylation of the substrate by PDK1-L155E, no PIFtide (relative, PKB[S473D]=100) (GST-FL-PKB 473D, P31749): 178
relative phosphorylation of the substrate by PDK1-L155E, +PIFtide (relative, PKB[S473D]=100) (GST-?PH-PKBα, P31749): 0.25
relative phosphorylation of the substrate by PDK1-L155E, no PIFtide (relative, PKB[S473D]=100) (GST-?PH-PKBα, P31749): 0.23
relative phosphorylation of the substrate by PDK1-L155E, +PIFtide (relative, PKB[S473D]=100) (GST-FL-PKB, P31749): 35
relative phosphorylation of the substrate by PDK1-L155E, no PIFtide (relative, PKB[S473D]=100) (GST-FL-PKB, P31749): 35
relative phosphorylation of the substrate by PDK1-L155E, +PIFtide (relative, PKB[S473D]=100) [6]: 0.108
relative phosphorylation of the substrate by PDK1-L155E, no PIFtide (relative, PKB[S473D]=100) [6]: 0.5
relative phosphorylation of the substrate by PDK1-L155E, +PIFtide (relative, PKB[S473D]=100) [7]: 2.4
relative phosphorylation of the substrate by PDK1-L155E, no PIFtide (relative, PKB[S473D]=100) [7]: 3.3

— patent US20030143656
